# Reference: patent publication US20200157212A1 (Pfizer, published 2020)
# T1: Human ROBO2 overexpressed on HEK293 cells (human, UniProt Q9HCK4 22-1378)
# T1 construct: also called ROBO2 cells; native ROBO2
# T1 sequence: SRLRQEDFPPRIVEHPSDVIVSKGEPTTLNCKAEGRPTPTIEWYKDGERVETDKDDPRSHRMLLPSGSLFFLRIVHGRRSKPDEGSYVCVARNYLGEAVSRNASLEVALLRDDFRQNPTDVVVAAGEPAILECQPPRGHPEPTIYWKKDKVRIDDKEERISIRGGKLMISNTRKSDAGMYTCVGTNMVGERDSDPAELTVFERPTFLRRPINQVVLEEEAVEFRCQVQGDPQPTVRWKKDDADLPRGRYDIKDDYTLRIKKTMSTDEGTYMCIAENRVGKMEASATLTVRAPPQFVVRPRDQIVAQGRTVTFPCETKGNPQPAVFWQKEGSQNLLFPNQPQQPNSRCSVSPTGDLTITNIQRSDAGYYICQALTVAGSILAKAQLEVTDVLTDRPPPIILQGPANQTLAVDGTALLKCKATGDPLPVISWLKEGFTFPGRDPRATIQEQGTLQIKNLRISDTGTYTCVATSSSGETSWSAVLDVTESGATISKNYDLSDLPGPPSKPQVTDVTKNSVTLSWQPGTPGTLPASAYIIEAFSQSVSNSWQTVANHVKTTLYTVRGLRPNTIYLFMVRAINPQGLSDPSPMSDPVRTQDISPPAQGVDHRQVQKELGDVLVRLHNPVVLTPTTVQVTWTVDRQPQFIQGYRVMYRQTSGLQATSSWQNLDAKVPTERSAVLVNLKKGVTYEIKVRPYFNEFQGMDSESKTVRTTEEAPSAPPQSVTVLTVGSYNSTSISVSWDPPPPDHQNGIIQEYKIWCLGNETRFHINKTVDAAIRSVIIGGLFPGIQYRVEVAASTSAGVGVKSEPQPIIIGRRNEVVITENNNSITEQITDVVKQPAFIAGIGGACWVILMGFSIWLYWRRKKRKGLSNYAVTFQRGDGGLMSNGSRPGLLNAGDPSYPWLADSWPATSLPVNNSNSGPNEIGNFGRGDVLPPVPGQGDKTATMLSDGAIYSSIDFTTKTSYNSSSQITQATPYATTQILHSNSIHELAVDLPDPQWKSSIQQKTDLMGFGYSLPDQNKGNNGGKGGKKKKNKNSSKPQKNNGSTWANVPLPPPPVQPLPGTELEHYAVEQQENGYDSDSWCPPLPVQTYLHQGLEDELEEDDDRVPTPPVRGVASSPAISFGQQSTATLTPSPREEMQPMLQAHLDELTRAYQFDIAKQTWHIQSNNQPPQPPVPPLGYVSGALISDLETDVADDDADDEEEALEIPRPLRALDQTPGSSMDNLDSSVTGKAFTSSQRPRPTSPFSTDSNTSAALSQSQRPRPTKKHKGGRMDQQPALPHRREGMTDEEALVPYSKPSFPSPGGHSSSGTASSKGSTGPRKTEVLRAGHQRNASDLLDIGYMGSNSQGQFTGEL
# Experiments:
# [1] = target: T1, Human ROBO2 overexpressed on HEK293 …; assay: flow cytometry, HEK293 cells
# Procedure: Using flow cytometry, improvement in the binding EC₅₀ to human ROBO2 relative to the parental 93H2 was evaluated. Starting at 6.7 nM, 11-point, 3-fold dilution series were made for each antibody and used to stain HEK293 overexpressing human ROBO2 as described above for the ROBO2 fold selectivity (Example 2). […] In addition to measuring improved binding to human ROBO2, it was important to ensure that high affinity binding to both cynomolgus monkey ROBO2 and rat ROBO2 was maintained. Using HEK293 cells overexpressing either cynomolgus monkey ROBO2 or rat ROBO2, the relative dose-dependent binding of 93H2, Abcs25 and Abcs35 was evaluated as described above. High affinity binding to both cynomolgus monkey and rat ROBO2 was maintained in Abcs25 and Abcs35 (Table 4). […] Briefly, Abcs35 was immobilized to 300 resonance units (RU) on a CM5 chip. Association of ROBO2 Ig1-Ig2-His (ROBO2) was measured over 5 minutes and dissociation was followed for a period of 10 minutes.
# (§1) The binding profile of Abcs35-J compared to Abcs35 was determined for human ROBO2, orthologs from cynomolgus monkey and rat, human ROBO1 and specificity for the RSK epitope from ROBO2 but not KSR from ROBO1. Binding was assessed by flow cytometry as described in Examples 2 (homolog specificity), Example 3 (ortholog reactivity) and Example 5 (RSK vs KSR epitope specificity). […] Binding of the antibodies was detected using a secondary fluorochrome conjugated anti-human IgG F(ab′)₂ antibody and samples analyzed on a Fortessa cytometer (BD Biosciences).
# [2] = target: T2, Human ROBO1 overexpressed on HEK293 cells (human, UniProt Q9Y6N7 26-1651); assay: flow cytometry on HEK293 cells overexpressing human ROBO1
# T2 construct: also called ROBO1 cells
# T2 sequence (Q9Y6N7 26-1651 limits assumed): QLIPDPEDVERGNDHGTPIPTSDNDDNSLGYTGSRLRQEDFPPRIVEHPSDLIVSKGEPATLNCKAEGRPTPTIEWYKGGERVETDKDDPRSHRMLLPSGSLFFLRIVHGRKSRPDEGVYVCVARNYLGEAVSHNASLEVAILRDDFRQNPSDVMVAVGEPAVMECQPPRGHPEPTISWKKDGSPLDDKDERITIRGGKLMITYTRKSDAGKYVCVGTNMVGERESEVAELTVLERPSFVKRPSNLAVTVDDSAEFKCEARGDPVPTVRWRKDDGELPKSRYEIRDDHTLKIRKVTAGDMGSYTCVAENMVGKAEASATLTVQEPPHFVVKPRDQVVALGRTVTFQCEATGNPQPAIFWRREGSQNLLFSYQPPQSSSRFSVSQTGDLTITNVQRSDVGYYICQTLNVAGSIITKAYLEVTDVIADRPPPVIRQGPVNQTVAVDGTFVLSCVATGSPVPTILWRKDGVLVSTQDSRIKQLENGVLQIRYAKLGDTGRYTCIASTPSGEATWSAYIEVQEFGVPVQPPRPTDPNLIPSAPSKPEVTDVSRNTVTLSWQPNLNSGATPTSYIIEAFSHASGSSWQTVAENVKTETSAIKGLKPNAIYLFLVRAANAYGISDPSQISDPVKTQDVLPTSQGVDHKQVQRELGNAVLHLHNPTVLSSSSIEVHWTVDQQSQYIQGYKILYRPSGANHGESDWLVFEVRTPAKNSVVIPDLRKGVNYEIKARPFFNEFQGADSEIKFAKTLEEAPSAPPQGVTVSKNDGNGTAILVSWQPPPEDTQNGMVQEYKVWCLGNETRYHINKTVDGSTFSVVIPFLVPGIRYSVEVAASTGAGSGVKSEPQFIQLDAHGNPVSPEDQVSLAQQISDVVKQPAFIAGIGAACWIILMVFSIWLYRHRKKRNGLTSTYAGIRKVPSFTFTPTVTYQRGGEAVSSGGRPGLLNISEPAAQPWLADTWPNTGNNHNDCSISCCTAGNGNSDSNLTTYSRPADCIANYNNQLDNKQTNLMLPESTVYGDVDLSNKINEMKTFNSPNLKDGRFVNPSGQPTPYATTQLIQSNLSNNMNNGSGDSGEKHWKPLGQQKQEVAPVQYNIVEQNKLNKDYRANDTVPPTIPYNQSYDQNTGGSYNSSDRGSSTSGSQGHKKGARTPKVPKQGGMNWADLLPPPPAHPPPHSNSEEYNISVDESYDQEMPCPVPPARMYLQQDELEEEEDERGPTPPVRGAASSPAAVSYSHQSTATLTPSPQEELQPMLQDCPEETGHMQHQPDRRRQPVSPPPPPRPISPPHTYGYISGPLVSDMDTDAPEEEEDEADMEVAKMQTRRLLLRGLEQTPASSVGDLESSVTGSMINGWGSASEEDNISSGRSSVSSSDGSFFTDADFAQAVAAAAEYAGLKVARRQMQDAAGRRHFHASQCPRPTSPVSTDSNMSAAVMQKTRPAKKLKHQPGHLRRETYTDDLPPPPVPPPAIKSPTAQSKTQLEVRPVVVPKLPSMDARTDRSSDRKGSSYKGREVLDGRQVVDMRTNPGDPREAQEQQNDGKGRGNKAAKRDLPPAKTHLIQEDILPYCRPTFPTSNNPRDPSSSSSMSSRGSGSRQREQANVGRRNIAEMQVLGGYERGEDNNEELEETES
# Procedure: as §1, with “Biosciences). […] FIGS. 16A-16F depicts binding profiles of Abcs35 (black circles) or Abcs35-J (grey squares) to human ROBO2 (FIG. 16A), cynomolgus monkey ROBO2 (FIG. 16B), rat ROBO2 (FIG. 16C), human ROBO1 (FIG. 16D), ROBO1 containing the ROBO2 RSK epitope (FIG. 16E) or ROBO2 containing the ROBO1 KSR epitope (FIG. 16 F).” for “Biosciences).”
Binder,EC50 [1] [nM],binding result [2]
"Abcs35 (antibody, human IgG1, kappa, fully human IgG1; VH of Ab96 with VL of Ab123) heavy: EVQLVQSGAEVKKPGASVKVSCKASGYTFTGYYMHWVRQAPGQGLEWMGWINPKNGDTEFPQKFQGRVTMTRDTSITTAYMDLSRLRSDDTAVYYCARESGDDAFDIWGQGTMVTVSSASTKGPSVFPLAPSSKSTSGGTAALGCLVKDYFPEPVTVSWNSGALTSGVHTFPAVLQSSGLYSLSSVVTVPSSSLGTQTYICNVNHKPSNTKVDKKVEPKSCDKTHTCPPCPAPEAAGAPSVFLFPPKPKDTLMISRTPEVTCVVVDVSHEDPEVKFNWYVDGVEVHNAKTKPREEQYNSTYRVVSVLTVLHQDWLNGKEYKCKVSNKALPAPIEKTISKAKGQPREPQVYTLPPSREEMTKNQVSLTCLVKGFYPSDIAVEWESNGQPENNYKTTPPVLDSDGSFFLYSKLTVDKSRWQQGNVFSCSVMHEALHNHYTQKSLSLSPGK light: DIVMTQSPSSLSASVGDRVTITCRASQSISSYLNWYQQKPGKAPKLLIYAASSLQSGVPSRFSGSGSGTDFTLTISSLQPEDFATYYCQQSVGLFFGGGTKVEIKRTVAAPSVFIFPPSDEQLKSGTASVVCLLNNFYPREAKVQWKVDNALQSGNSQESVTEQDSKDSTYSLSSTLTLSKADYEKHKVYACEVTHQGLSSPVTKSFNRGEC",0.089,no binding (tested: last point just below 10^1 nM)
"Abcs35-J (antibody, human IgG1, kappa, germlined variant of Abcs35; also called ABCS-J) heavy: EVQLVQSGAEVKKPGASVKVSCKASGYTFTGYYMHWVRQAPGQGLEWMGWINPKNGDTEFPQKFQGRVTMTRDTSITTAYMELSRLRSDDTAVYYCARESGDDAFDIWGQGTMVTVSSASTKGPSVFPLAPSSKSTSGGTAALGCLVKDYFPEPVTVSWNSGALTSGVHTFPAVLQSSGLYSLSSVVTVPSSSLGTQTYICNVNHKPSNTKVDKKVEPKSCDKTHTCPPCPAPEAAGAPSVFLFPPKPKDTLMISRTPEVTCVVVDVSHEDPEVKFNWYVDGVEVHNAKTKPREEQYNSTYRVVSVLTVLHQDWLNGKEYKCKVSNKALPAPIEKTISKAKGQPREPQVYTLPPSREEMTKNQVSLTCLVKGFYPSDIAVEWESNGQPENNYKTTPPVLDSDGSFFLYSKLTVDKSRWQQGNVFSCSVMHEALHNHYTQKSLSLSPGK light: not shown",0.102,no binding (tested: last point just below 10^1 nM)
